The text below walks through data of patent US20090017041A1.

Experiment [1] deals with oligomer-enriched preparation of the Aβ1-42 peptide (Example 16). Nature of the experiment: ELISA, fraction coated at 2.2 µM; assay 2; antibody dilution 1:32 (start 0.5 µg/ml). (An ELISA detects its analyte on a solid surface through an enzyme-linked reagent.)
The target of experiment [2] is monomer-enriched preparation of the Aβ1-42 peptide (Example 16). Described as above.
Experiment [3] concerns the target oligomer-enriched preparation of the Aβ1-42 peptide (Example 16). Nature of the experiment: ELISA, fraction coated at 2.2 µM; assay 2; antibody dilution 1:8 (start 0.5 µg/ml).
Experiment [4] has the same target. Briefly: ELISA, fraction coated at 2.2 µM; assay 3; antibody dilution 1:128 (start 0.5 µg/ml).
Experiment [5] addresses monomer-enriched preparation of the Aβ1-42 peptide (Example 16). The experiment is described as above.
Experiment [6] concerns the target oligomer-enriched preparation of the Aβ1-42 peptide (Example 16). Briefly: ELISA, fraction coated at 2.2 µM; antibody dilution 1:8 (start 0.5 µg/ml).
Experiment [7] shares this target. Nature of the experiment: ELISA, fraction coated at 2.2 µM; assay 3; antibody dilution 1:1 (start 0.5 µg/ml).
The target of experiment [8] is monomer-enriched preparation of the Aβ1-42 peptide (Example 16). The description is as above.
Experiment [9] has the same target. Briefly: ELISA, fraction coated at 2.2 µM; antibody dilution 1:64 (start 0.5 µg/ml).
For experiment [10], the target named is oligomer-enriched preparation of the Aβ1-42 peptide (Example 16). Nature of the experiment: ELISA, fraction coated at 2.2 µM; assay 3; antibody dilution 1:8 (start 0.5 µg/ml).

Chain of oligomer-enriched preparation of the Aβ1-42 peptide (Example 16) (peptide, as listed by the source): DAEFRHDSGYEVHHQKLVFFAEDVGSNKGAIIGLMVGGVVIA
Chain of monomer-enriched preparation of the Aβ1-42 peptide (Example 16) (peptide, as listed by the source): as above

As to 6E10 control antibody, the O.D. (405 nm) in experiment [1] was determined as 1.3 O.D; in [2], 1.34 O.D; in [3], 2.99 O.D; in [4] it was 0.66 O.D; in experiment [5], 0.86 O.D; in experiment [7], 3.89 O.D. The figures for the O.D. (405 nm) in [8] and in experiment [10] were 4.04 O.D and 3.23 O.D, respectively. Moreover, the O.D. (405 nm), mean of 3 assays in [6] was 2.98 O.D; in experiment [9], 0.94 O.D.
